Reference: US20230295310A1 (ABCELLERA BIOLOGICS, published 2023)

Assays:
[1] = molecular target: T1, cynomolgus monkey CD3 expressed on cyno primary T cells (cynomolgus monkey, UniProt Q95LI5 22-198; Q95LI8 22-171; Q95LI7 23-181); experiment: flow cytometry, cyno primary T cells
T1 construct: whole, on cells; CD3 complex on purified cynomolgus monkey CD3 pan T cells; also called cyno CD3
Summary of the method: (§1)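 25 nM Ab in FACS buffer (PBS+2% FBS), 30 min at 4° C on CD3+ cells; flow cytometry MFI normalized to isotype = FOI; cutoff ≥10 for positive.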

[2] = molecular target: T2, human CD3 expressed on cells (Jurkat cells; human primary T cells) (human, UniProt P07766 23-207; P04234 22-171; P09693 23-182); experiment: flow cytometry, 25 nM, human primary T cells
T2 construct: whole, on cells
T2 sequence (P07766 23-207, chain 1 of 3): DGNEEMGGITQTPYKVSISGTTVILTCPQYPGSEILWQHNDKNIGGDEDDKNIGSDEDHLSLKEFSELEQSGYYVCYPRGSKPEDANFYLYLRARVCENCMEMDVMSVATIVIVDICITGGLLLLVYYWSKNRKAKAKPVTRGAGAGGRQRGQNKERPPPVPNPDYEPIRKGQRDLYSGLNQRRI
T2 sequence (P04234 22-171, chain 2 of 3): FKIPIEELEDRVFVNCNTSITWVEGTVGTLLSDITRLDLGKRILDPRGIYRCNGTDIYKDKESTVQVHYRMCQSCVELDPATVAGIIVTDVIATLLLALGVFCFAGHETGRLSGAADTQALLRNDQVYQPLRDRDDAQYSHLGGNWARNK
T2 sequence (P09693 23-182, chain 3 of 3): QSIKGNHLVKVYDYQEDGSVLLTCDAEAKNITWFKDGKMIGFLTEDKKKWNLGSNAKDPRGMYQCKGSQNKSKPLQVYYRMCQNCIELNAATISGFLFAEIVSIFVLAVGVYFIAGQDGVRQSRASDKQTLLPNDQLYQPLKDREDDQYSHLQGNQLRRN
Summary of the method: as §1

[3] = molecular target: T2, human CD3 expressed on cells (Jurkat …); experiment: flow cytometry, 25 nM, Jurkat cells
Summary of the method: as §1

[4] = molecular target: human EGFR, C-terminal eGFP-tagged, on CHO-K1 cells (human, UniProt P00533 25-1210); experiment: cell-based or functional assay

T1 sequence (Q95LI5 22-198, chain 1 of 3): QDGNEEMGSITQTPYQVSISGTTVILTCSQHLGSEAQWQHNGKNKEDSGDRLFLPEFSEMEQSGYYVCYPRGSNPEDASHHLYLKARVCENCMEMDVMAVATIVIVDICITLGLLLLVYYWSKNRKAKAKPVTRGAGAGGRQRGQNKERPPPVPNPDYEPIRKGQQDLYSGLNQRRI
T1 sequence (Q95LI8 22-171, chain 2 of 3): as the sequence (P04234 22-171, chain 2 of 3) above, with I5V, N15K, I20V, S32T, D33N, I34N, T64A, S74N, V83L, H141R counted along it
T1 sequence (Q95LI7 23-181, chain 3 of 3): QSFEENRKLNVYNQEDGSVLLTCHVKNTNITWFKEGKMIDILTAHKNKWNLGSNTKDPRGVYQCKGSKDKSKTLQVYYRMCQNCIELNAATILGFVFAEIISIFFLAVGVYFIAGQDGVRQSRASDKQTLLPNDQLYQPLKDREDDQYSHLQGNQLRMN

Binder	binding result [1]	Binding (FOI) [2] [FOI]	Binding (FOI) [3] [FOI]	EC50 CHO-K1 EGFR Low (nM); T cell activation bioassay, luciferase [4] [nM]	EC50 CHO-K1 EGFR Med (nM); T cell activation bioassay, luciferase [4] [nM]
mAb 284 (antibody, V domains shown, VH/VL only) VH: EVQLLESGGGLVQPGGSLRLSCAASGFTFSSYAMSWVRQAPGKGLEWVSAISGSSGRTYYTDSVKGRFTISRDNSKNTLSLQMNSLRAEDTAVYYCAKKYSYYYYYMDVWGKGTTVTVSS VL: SYELTQPLSVSVALGQTAKITCGGNNIGSKNVHWYQQKPGQAPVLVIYRDSNRPSGIPERFSGSNSGNTATLTISRAQAGDEADYYCQVWDSSTAVFGGGTQLTAL	no binding (tested: FOI <10 (FOI >=10 = positive); 25 nM)	209	226		
GOMP001_bsAb_011 (bispecific antibody, human IgG1, kappa, L234A L235A) heavy 1: QVQLVQSGAEVKKPGASVKVSCKASGYTFTSHWMHWVRKAPGQGLEWIGEFNPSNGRTNYNEEFKSKATMTVDTSTNTAYMELSSLRSEDTAVYYCASRDYDYDGRYFDYWGQGTLVTVSSASTKGPSVFPLAPSSKSTSGGTAALGCLVADYFPEPVTVSWNSGALTSGVHTFPAVLQSSGLYSLSSVVTVPSSSLGTQTYICNVNHKPSNTKVDEKVEPKSCDKTHTCPPCPAPEAAGGPSVFLFPPKPKDTLMISRTPEVTCVVVDVSHEDPEVKFNWYVDGVEVHNAKTKPREEQYNSTYRVVSVLTVLHQDWLNGKEYKCKVSNKALPAPIEKTISKAKGQPREPQVYTLPPSREEMTDNQVSLTCLVKGFYPSDIAVEWESNGQPENNYKTTPPVLMSDGSFFLASKLTVDKSRWQQGNVFSCSVMHEALHNHYTQKSLSLSPG light 1: RIQMTQSPSSLSASVGDRVTITCSASSSVTYMYWYQDKPGKAPKLLIYDTSNLASGVPSRFSGSGSGTDYTFTISSLQPEDIATYYCQQWSSHIFTFGQGTKVEIKRTVAAPSVFIFPPSDKQLKSGTARVVCLLNNFYPREAKVQWKVDNALQSGNSQESVTEQDSKDSTYSLSSTLTLSKADYEKHKVYACEVTHQGLSSPVTKSFNRGEC heavy 2: EVQLVESGGGLVQPGGSLRLSCAASGFTLSSYTMNWVRYAPGKGLEWVSYISSSSRTIYYSDRVKGRFSISRDNAKNSLYLQMNSLRDEDTALYYCAREDYYDSSGFDNWGRGTLVTVSSASTKGPSVFPLAPSSKSTSGGTAALGCLVKDYFPEPVTVSWNSGALTSGVHTFPAVLQSSGLYSLSSVVTVPSSSLGTQTYICNVNHKPSNTKVDKKVEPKSCDKTHTCPPCPAPEAAGGPSVFLFPPKPKDTLMISRTPEVTCVVVDVSHEDPEVKFNWYVDGVEVHNAKTKPREEQYNSTYRVVSVLTVLHQDWLNGKEYKCKVSNKALPAPIEKTISKAKGQPRRPRVYTLPPSREEMTKNQVSLVCLVKGFYPSDIAVEWESNGQPENNYKTTPPVLDSDGSFFLYSVLTVDKSRWQQGNVFSCSVMHEALHNHYTQKSLSLSPG light 2: DIRMTQSPSSFSASTGDRVTITCRASQGISSYLAWYQRKPGDAPKLLIYTASTLQSGVPSRFSGSGSGTDFTLTIRSLQSEDFATYYCQQYYSYPRTFGQGTKVEIKRTVAAPSVFIFPPSDEQLKSGTASVVCLLNNFYPREAKVQWKVDNALQSGNSQESVTEQDSKDSTYSLSSTLTLSKADYEKHKVYACEVTHQGLSSPVTKSFNRGEC				0.106	0.0263
GOMP001_bsAb_012 (bispecific antibody, human IgG1, kappa, L234A L235A) heavy 1: EVQLVESGGGLVQPGGSLRLSCAASGFTLSSYTMNWVRYAPGKGLEWVSYISSSSRTIYYSDRVKGRFSISRDNAKNSLYLQMNSLRDEDTALYYCAREDYYDSSGFDNWGRGTLVTVSSASTKGPSVFPLAPSSKSTSGGTAALGCLVKDYFPEPVTVSWNSGALTSGVHTFPAVLQSSGLYSLSSVVTVPSSSLGTQTYICNVNHKPSNTKVDKKVEPKSCDKTHTCPPCPAPEAAGGPSVFLFPPKPKDTLMISRTPEVTCVVVDVSHEDPEVKFNWYVDGVEVHNAKTKPREEQYNSTYRVVSVLTVLHQDWLNGKEYKCKVSNKALPAPIEKTISKAKGQPRRPRVYTLPPSREEMTKNQVSLVCLVKGFYPSDIAVEWESNGQPENNYKTTPPVLDSDGSFFLYSVLTVDKSRWQQGNVFSCSVMHEALHNHYTQKSLSLSPG light 1: DIRMTQSPSSFSASTGDRVTITCRASQGISSYLAWYQRKPGDAPKLLIYTASTLQSGVPSRFSGSGSGTDFTLTIRSLQSEDFATYYCQQYYSYPRTFGQGTKVEIKRTVAAPSVFIFPPSDEQLKSGTASVVCLLNNFYPREAKVQWKVDNALQSGNSQESVTEQDSKDSTYSLSSTLTLSKADYEKHKVYACEVTHQGLSSPVTKSFNRGEC heavy 2: QVQLVQSGAEVKKPGASVKVSCKASGYTFTSHWMHWVRYAPGQGLEWIGEFNPSNGRTNYNEKFKSKATMTVDTSTNTAYMELSSLRSEDTAVYYCASRDYDYDGRYFDYWGRGTLVTVSSASTKGPSVFPLAPSSKSTSGGTAALGCLVKDYFPEPVTVSWNSGALTSGVHTFPAVLQSSGLYSLSSVVTVPSSSLGTQTYICNVNHKPSNTKVDKKVEPKSCDKTHTCPPCPAPEAAGGPSVFLFPPKPKDTLMISRTPEVTCVVVDVSHEDPEVKFNWYVDGVEVHNAKTKPREEQYNSTYRVVSVLTVLHQDWLNGKEYKCKVSNKALPAPIEKTISKAKGQPRRPRVYTLPPSREEMTKNQVSLVCLVKGFYPSDIAVEWESNGQPENNYKTTPPVLDSDGSFFLYSVLTVDKSRWQQGNVFSCSVMHEALHNHYTQKSLSLSPG light 2: DIQMTQSPSSLSASVGDRVTITCSASSSVTYMYWYQRKPGDAPKLLIYDTSNLASGVPSRFSGSGSGTDYTFTISSLQPEDIATYYCQQWSSHIFTFGQGTKVEIKRTVAAPSVFIFPPSDEQLKSGTASVVCLLNNFYPREAKVQWKVDNALQSGNSQESVTEQDSKDSTYSLSSTLTLSKADYEKHKVYACEVTHQGLSSPVTKSFNRGEC				0.147	0.0234
GOMP001_bsAb_013 (bispecific antibody, human IgG1, kappa, L234A L235A) heavy 1: QVQLVQSGAEVKKPGASVKVSCKASGYTFTSHWMHWVRKAPGQGLEWIGEFNPSNGRTNYNEEFKSKATMTVDTSTNTAYMELSSLRSEDTAVYYCASRDYDYDGRYFDYWGQGTLVTVSSASTKGPSVFPLAPSSKSTSGGTAALGCLVADYFPEPVTVSWNSGALTSGVHTFPAVLQSSGLYSLSSVVTVPSSSLGTQTYICNVNHKPSNTKVDEKVEPKSCDKTHTCPPCPAPEAAGGPSVFLFPPKPKDTLMISRTPEVTCVVVDVSHEDPEVKFNWYVDGVEVHNAKTKPREEQYNSTYRVVSVLTVLHQDWLNGKEYKCKVSNKALPAPIEKTISKAKGQPREPQVYTLPPSREEMTDNQVSLTCLVKGFYPSDIAVEWESNGQPENNYKTTPPVLMSDGSFFLASKLTVDKSRWQQGNVFSCSVMHEALHNHYTQKSLSLSPG light 1: RIQMTQSPSSLSASVGDRVTITCSASSSVTYMYWYQDKPGKAPKLLIYDTSNLASGVPSRFSGSGSGTDYTFTISSLQPEDIATYYCQQWSSHIFTFGQGTKVEIKRTVAAPSVFIFPPSDKQLKSGTARVVCLLNNFYPREAKVQWKVDNALQSGNSQESVTEQDSKDSTYSLSSTLTLSKADYEKHKVYACEVTHQGLSSPVTKSFNRGEC heavy 2: QVQLVQSGAEVKKPGASVKVSCKASGYTFTSYDINWVRYATGQGLEWMGWMNPKSGKTGYAQKFQGRITMTRNTPISTVYMDLSSLRSEDTAVYYCAREGHYDFWTGYYSFDYWGRGTLVTVSSASTKGPSVFPLAPSSKSTSGGTAALGCLVKDYFPEPVTVSWNSGALTSGVHTFPAVLQSSGLYSLSSVVTVPSSSLGTQTYICNVNHKPSNTKVDKKVEPKSCDKTHTCPPCPAPEAAGGPSVFLFPPKPKDTLMISRTPEVTCVVVDVSHEDPEVKFNWYVDGVEVHNAKTKPREEQYNSTYRVVSVLTVLHQDWLNGKEYKCKVSNKALPAPIEKTISKAKGQPRRPRVYTLPPSREEMTKNQVSLVCLVKGFYPSDIAVEWESNGQPENNYKTTPPVLDSDGSFFLYSVLTVDKSRWQQGNVFSCSVMHEALHNHYTQKSLSLSPG light 2: DIQMTQSPSSLSASVGDRVTITCRASQGIRNDLGWYQRTPGDAPKRLIYAASSLQSGVPSRFSGSGSGTEFTLTISSLQPEDFATYYCLQHYSYPYTFGQGTKLEIKRTVAAPSVFIFPPSDEQLKSGTASVVCLLNNFYPREAKVQWKVDNALQSGNSQESVTEQDSKDSTYSLSSTLTLSKADYEKHKVYACEVTHQGLSSPVTKSFNRGEC				1.31	0.239
